Source: US7125541

Tests used:
[1] = target: human endoglin (human) (UniProt P17813); test: competitive binding inhibition on HUVEC by FACS; unlabelled TEC-11 against competitor biotinylated TEC-4, ratio 1:1
[2] = target: human endoglin (human) (UniProt P17813); test: competitive binding inhibition on HUVEC by FACS; unlabelled TEC-4 against competitor biotinylated TEC-11, ratio 1:100
[3] = target: human endoglin (human) (UniProt P17813); test: competitive binding inhibition on HUVEC by FACS; unlabelled TEC-4 against competitor biotinylated TEC-11, ratio 1:1

percent blocking of biotinylated antibody [1] [%] | percent blocking of biotinylated antibody [2] [%] | percent blocking of biotinylated antibody [3] [%] | Substance
51 | – | – | TEC-11 (tumor endothelial cell antibody 11)
– | 20 | 1 | TEC-4 (tumor endothelial cell antibody 4)
